Measured values published in publication PMC8023661, “Engineering of Ancestors as a Tool to Elucidate Structure, Mechanism, and Specificity of Extant Terpene Cyclase” (Journal of the American Chemical Society, 2021).

Key:
SvS-WT = molecular target: T1, SvS-WT (Streptomyces violens, UniProt P0DPK6); assay: in vitro product formation, GC; format: biochemical; details: 2 µM enzyme, 3 h
T1 construct: extant wild-type enzyme, expressed in E. coli BL21(DE3), purified and desalted; dimeric in solution
T1 sequence (P0DPK6 1-359): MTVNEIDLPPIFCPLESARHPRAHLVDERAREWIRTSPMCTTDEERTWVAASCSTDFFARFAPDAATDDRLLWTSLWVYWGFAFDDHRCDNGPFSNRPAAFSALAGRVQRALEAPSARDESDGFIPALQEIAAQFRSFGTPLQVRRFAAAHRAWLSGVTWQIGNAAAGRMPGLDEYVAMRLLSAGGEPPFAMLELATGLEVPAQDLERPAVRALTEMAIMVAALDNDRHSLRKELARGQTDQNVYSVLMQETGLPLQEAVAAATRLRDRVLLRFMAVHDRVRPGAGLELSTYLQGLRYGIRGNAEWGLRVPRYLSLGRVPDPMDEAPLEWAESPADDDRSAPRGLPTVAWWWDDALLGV

SvS-A2 [1] = molecular target: T2, SvS-A2 (synthetic construct, UniProt Z9I7L2B0V8, A89H/A224I); assay: Malachite Green assay; GC-FID competition experiment; format: biochemical; details: 60 µM each FPP and GGPP, ca. 400 nM enzyme, 30 °C, 3 h; library variants carry Ala89His
T2 construct: homodimer; first resolved N-terminal residue Asp09
T2 sequence (Z9I7L2B0V8 1-361 A89H/A224I): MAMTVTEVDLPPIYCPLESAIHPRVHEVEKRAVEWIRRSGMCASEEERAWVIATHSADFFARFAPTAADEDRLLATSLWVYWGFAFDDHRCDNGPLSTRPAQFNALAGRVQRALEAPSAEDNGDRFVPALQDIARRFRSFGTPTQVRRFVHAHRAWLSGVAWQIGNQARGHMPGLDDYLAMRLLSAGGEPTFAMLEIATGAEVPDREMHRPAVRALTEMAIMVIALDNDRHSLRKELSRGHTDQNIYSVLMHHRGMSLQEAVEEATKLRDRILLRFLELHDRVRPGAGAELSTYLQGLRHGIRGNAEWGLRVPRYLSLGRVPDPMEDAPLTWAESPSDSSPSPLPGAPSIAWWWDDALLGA

SvS-A2 [2] = molecular target: T3, SvS-A2 (synthetic construct, UniProt Z9I7L2B0V8, A89H/W156Y); assay: as above; format: biochemical; details: 60 µM each FPP and GGPP, ca. 400 nM enzyme, 30 °C, 3 h; library variants carry Ala89His
T3 construct: homodimer; first resolved N-terminal residue Asp09
T3 sequence (Z9I7L2B0V8 1-361 A89H/W156Y): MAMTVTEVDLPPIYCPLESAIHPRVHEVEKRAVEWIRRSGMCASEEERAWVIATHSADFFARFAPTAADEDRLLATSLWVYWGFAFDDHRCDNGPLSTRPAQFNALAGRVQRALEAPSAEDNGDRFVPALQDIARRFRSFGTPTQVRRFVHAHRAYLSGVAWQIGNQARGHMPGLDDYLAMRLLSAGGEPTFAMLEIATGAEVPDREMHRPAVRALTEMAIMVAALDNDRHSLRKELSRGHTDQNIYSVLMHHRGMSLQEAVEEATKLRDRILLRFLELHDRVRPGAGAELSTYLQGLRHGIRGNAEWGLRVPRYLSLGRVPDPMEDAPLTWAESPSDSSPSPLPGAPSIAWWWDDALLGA

[3] = molecular target: spiroviolene synthase (SvS) from Streptomyces violens, extant enzyme (Streptomyces violens); assay: SEC; size exclusion chromatography of the enzyme in solution; conditions in the Supporting Methods (not shown)
[4] = substrate: CC(C)=CCC/C(C)=C/CC/C(C)=C/CC/C(C)=C/COP(=O)(O)OP(=O)(O)O; assay: initial rates of spiroviolene formation, cooperative fit; format: biochemical, synthetic construct; details: 0.5 µM enzyme, Hill coefficient fit
Description: initial rates of spiroviolene formation, cooperative fit on SvS-A2 | The KM value for GGPP reported herein is twice as high as previously reported

[5] = substrate: CC(C)=CCC/C(C)=C/CC/C(C)=C/CO[P@@](=O)(O)OP(=O)(O)O; assay: initial rates of hedycaryol formation, Michaelis-Menten fit; format: biochemical, synthetic construct; details: 0.5 µM enzyme

CC(C)=CCC/C(C)=C/CC/C(C)=C/COP(=O)(O)OP(=O)(O)O [FPP]
in vitro product formation, GC (SvS-WT; 60 µM FPP, 50 mM Tris-HCl pH 7.4, 30 °C): the extant enzyme in fact showed higher activity with FPP than GGPP
Malachite Green assay; GC-FID competition experiment (SvS-A2 [1]): Ala224Ile (group IV) reverses substrate preference of the reconstructed ancestral enzyme

CC(C)=CCC/C(C)=C/CC/C(C)=C/CC/C(C)=C/COP(=O)(O)OP(=O)(O)O [GGPP]
Malachite Green assay; GC-FID competition experiment (SvS-A2 [2]): A Trp156Tyr exchange (Group III) results in a highly active and diterpene specific SvS-A2 variant
in vitro product formation, GC (SvS-WT; 60 µM GGPP, 30 °C): both enzymes accepted FPP and GGPP as substrates

spiroviolene synthase (SvS) from Streptomyces violens, extant enzyme
stoichiometry N [3]: 2

B1: SvS-A2 (synthetic construct) (protein)
chain: MAMTVTEVDLPPIYCPLESAIHPRVHEVEKRAVEWIRRSGMCASEEERAWVIATHSADFFARFAPTAADEDRLLATSLWVYWGFAFDDARCDNGPLSTRPAQFNALAGRVQRALEAPSAEDNGDRFVPALQDIARRFRSFGTPTQVRRFVHAHRAWLSGVAWQIGNQARGHMPGLDDYLAMRLLSAGGEPTFAMLEIATGAEVPDREMHRPAVRALTEMAIMVAALDNDRHSLRKELSRGHTDQNIYSVLMHHRGMSLQEAVEEATKLRDRILLRFLELHDRVRPGAGAELSTYLQGLRHGIRGNAEWGLRVPRYLSLGRVPDPMEDAPLTWAESPSDSSPSPLPGAPSIAWWWDDALLGA
notes: homodimer; first resolved N-terminal residue Asp09
Km [4]: 49 ± 6 µM
kcat [4]: 5.8 ± 0.6 × 10^-3 s^-1
Km [5]: 28 ± 11 µM
kcat [5]: 0.3 ± 0.04 × 10^-3 s^-1
